Consider 116 sequences from the supplement of paper PMC10724198.

± gives the standard deviation of the averaged measurements.
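Note: PSI is a weighted mean of sequencing reads over stability bins, variants kept only with over 10 reads, mCherry proximal and sfGFP distal, peptide attached via GGGS linker.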

The subject of the data set is Saccharomyces cerevisiae. The experiment in a line: protein stability index of tFT-peptide fusion (C-terminal peptide) (PSI (0-1 scale)); higher = more stable (slower turnover). The following applies: genetic background: wild type; temperature: 30 C.
Turning to KKQQTIKKKKKR, the protein stability index turned out to be 0.7014 ± 0.003.

In turn, KKRHERNYLVQS had a protein stability index of 0.662 ± 0.066.

In turn, KKRRTCPNRRDK showed a protein stability index of 0.554 ± 0.036.

For the sequence KKRTQKKKKYNR, the protein stability index was 0.6943 ± 0.0063.

With KKSRLNRIVMRH, the protein stability index came out at 0.664 ± 0.073.

Sequence KKTEKKYNRNRG displayed a protein stability index of 0.786 ± 0.1.

In turn, KKTKKKRGEYKK gave a protein stability index of 0.714 ± 0.017.

In the case of KKTLIQKEQIRR, the protein stability index is 0.644 ± 0.022.

As for KLKDRRKNTEEI, the protein stability index turned out to be 0.6961 ± 0.0033.

Take KLKKNKTREMET: the protein stability index is 0.789 ± 0.018.

The sequence KLNLKVRKRERP yielded a protein stability index of 0.66971 ± 0.00065.

KLPRPPQRLRLP returned a protein stability index of 0.684 ± 0.066.

KLQKINKIKNEI came in with a protein stability index of 0.685 ± 0.032.

On to KLSIWRADKDLE, for which the protein stability index is 0.688 ± 0.015.

On to KLSTGRGRTGYV, for which the protein stability index was found to be 0.698 ± 0.072.

Take KLVKWEGGYIVS: the protein stability index is 0.61 ± 0.019.

The sequence KMGRTEIWTIHL displayed a protein stability index of 0.685 ± 0.053.

The sequence KMSEERIGIEKN displayed a protein stability index of 0.7038 ± 0.0029.

In turn, KMYKRPNYQKTK yielded a protein stability index of 0.64 ± 0.024.

As for KNGQGQRKIPGK, the protein stability index was found to be 0.721 ± 0.023.

For KNITIKKSKIKD, the protein stability index was determined as 0.61 ± 0.055.

KNKKNKCNKVKK gave a protein stability index of 0.726 ± 0.024.

On to KNKKYKNKQKQR, for which the protein stability index was 0.714 ± 0.094.

Regarding KNKMGRKYTLPH, the protein stability index is 0.654 ± 0.081.

KNKTKQKTRTET displayed a protein stability index of 0.704 ± 0.013.

Turning to KNKTLNKIIRLP, the protein stability index turned out to be 0.717 ± 0.042.

KNKTTKKRKKRP yielded a protein stability index of 0.695 ± 0.057.

As to KNNITTTNKRMK, the protein stability index came to 0.679 ± 0.0071.

In turn, KNRAEMREGIAL came in with a protein stability index of 0.63 ± 0.018.

The sequence KNRENNTKIEIQ came in with a protein stability index of 0.661 ± 0.014.

The sequence KPALPPITPNLC registered a protein stability index of 0.6727 ± 0.0036.

KPQAGPSRHPPS showed a protein stability index of 0.759 ± 0.064.

For the sequence KQGHNEIMTKGK, the protein stability index was 0.6814 ± 0.0015.

In the case of KQIPLFILRPQT, the protein stability index stood at 0.704 ± 0.1.

Consider KQKARRARGKEG, for which the protein stability index is 0.65 ± 0.024.

Consider KQQCKTGRRRLV, for which the protein stability index was 0.716 ± 0.072.

KQQRTKKKEKKR showed a protein stability index of 0.628 ± 0.097.

In turn, KQRSKKCRETYR returned a protein stability index of 0.729 ± 0.019.

On to KQRTMNKVSKEK, for which the protein stability index was determined as 0.683 ± 0.045.

As to KQTICNTGPQWV, the protein stability index came to 0.6267 ± 0.0022.

The sequence KREKGLKQIVRL had a protein stability index of 0.6827 ± 0.0029.

In turn, KRESETPKKHRK registered a protein stability index of 0.711 ± 0.068.

In turn, KRGRGPQFCDLY yielded a protein stability index of 0.693 ± 0.045.

In turn, KRIQGEICVPGA had a protein stability index of 0.682 ± 0.041.

KRITRKRIKRRR returned a protein stability index of 0.7772 ± 0.0015.

On to KRKDKKKKYIRK, for which the protein stability index was 0.759 ± 0.085.

The sequence KRRKKKSKERER had a protein stability index of 0.672 ± 0.015.

With KRRNKTNREDTM, the protein stability index came out at 0.68 ± 0.052.

With KRTKKKKKMELE, the protein stability index amounted to 0.719 ± 0.013.

KRYRLRVKIGNT showed a protein stability index of 0.5291 ± 0.0046.

KSAPAIRASRPR yielded a protein stability index of 0.715 ± 0.0064.

On to KSEGKKHIDKKR, for which the protein stability index was determined as 0.63 ± 0.034.

The sequence KSEKKKKRKEKK had a protein stability index of 0.718 ± 0.052.

As for KSGLMFCIGDWC, the protein stability index came out at 0.7 ± 0.044.

Sequence KSKGVRITKVSN came in with a protein stability index of 0.783 ± 0.02.

KSKIKKKKQTKR registered a protein stability index of 0.652 ± 0.051.

For the sequence KSRKEREKSDNQ, the protein stability index stood at 0.678 ± 0.037.

KSSNIDINCNQN displayed a protein stability index of 0.691 ± 0.053.

Regarding KSVMVLRLLELK, the protein stability index stood at 0.636 ± 0.032.

For KSVPLCSLGTTG, the protein stability index turned out to be 0.6726 ± 0.0036.

The sequence KSVQEPTPRKYR returned a protein stability index of 0.674 ± 0.026.

For the sequence KSVSIKGKFTSK, the protein stability index is 0.6494 ± 0.00087.

The sequence KTCGVGLDRMIG returned a protein stability index of 0.714 ± 0.0099.

KTKKKQKQHRKQ came in with a protein stability index of 0.686 ± 0.033.

KTKVIFMYKKGQ registered a protein stability index of 0.675 ± 0.021.

Sequence KTMCNNLTKLQR had a protein stability index of 0.622 ± 0.029.

KTNKKTIVKSQT gave a protein stability index of 0.674 ± 0.046.

As to KTQKYEIKNLKK, the protein stability index worked out at 0.581 ± 0.082.

As to KTRQSNAPRRTF, the protein stability index was found to be 0.707 ± 0.0091.

On to KVGQWLRGKSKR, for which the protein stability index is 0.7171 ± 0.00075.

Sequence KVNKKKVITKQE displayed a protein stability index of 0.713 ± 0.027.

In turn, KVQRINNKKERK registered a protein stability index of 0.677 ± 0.044.

In turn, KVWQISEVGAGY showed a protein stability index of 0.617 ± 0.024.

The sequence KYGTPFPPEVEM yielded a protein stability index of 0.718 ± 0.034.

KYNKQRQTRIET showed a protein stability index of 0.663 ± 0.019.

LAARHLNFPPIL came in with a protein stability index of 0.711 ± 0.009.

On to LACTGFPPPFPL, for which the protein stability index amounted to 0.675 ± 0.017.

LADFLGVSLLAV came in with a protein stability index of 0.5695 ± 0.0031.

For the sequence LAFSGAWGILPL, the protein stability index worked out at 0.682 ± 0.067.

Turning to LAHRASICLARL, the protein stability index was determined as 0.695 ± 0.063.

With LALEVSNLSCSV, the protein stability index came to 0.696 ± 0.022.

On to LALFDPAQRHAR, for which the protein stability index was determined as 0.704 ± 0.052.

In turn, LALWNGVSMEEE displayed a protein stability index of 0.654 ± 0.039.

For LALYISFGLSLI, the protein stability index is 0.526 ± 0.031.

LALYPYIPDSPF showed a protein stability index of 0.636 ± 0.048.

For LAPPPPAPPMSP, the protein stability index was 0.717 ± 0.013.

LAPPVRECPFML showed a protein stability index of 0.692 ± 0.072.

As for LAPSPPPPPLPL, the protein stability index turned out to be 0.677 ± 0.01.

On to LAPSPTSRPIKC, for which the protein stability index was determined as 0.677 ± 0.018.

LAPTPLAPSPPP displayed a protein stability index of 0.728 ± 0.055.

LARTSVACEGLG returned a protein stability index of 0.703 ± 0.045.

The sequence LASLVANSRNSL registered a protein stability index of 0.798 ± 0.27.

Turning to LATLLIRLLGQA, the protein stability index was 0.496 ± 0.0088.

Regarding LCAGASYTMTVP, the protein stability index is 0.694 ± 0.021.

Consider LCCMFGLAGRGV, for which the protein stability index worked out at 0.654 ± 0.0083.

On to LCFPHDFFSSSS, for which the protein stability index amounted to 0.7768 ± 0.0058.

In turn, LCGALWGAARGE showed a protein stability index of 0.728 ± 0.019.

For LCKGCEGGVMQR, the protein stability index turned out to be 0.666 ± 0.037.

Regarding LCPSLSSPTSAT, the protein stability index is 0.659 ± 0.029.

In turn, LCPWRYAVLFSP yielded a protein stability index of 0.645 ± 0.068.

Sequence LCRFPSSPQLPS came in with a protein stability index of 0.7236 ± 0.0071.

Consider LCRLTNVCGAVV, for which the protein stability index was 0.6543 ± 0.004.

Regarding LCSPKPASAPGH, the protein stability index was found to be 0.668 ± 0.032.

LCVLFVSKPTPE: the protein stability index was determined as 0.67 ± 0.019.

LDLVFYMFSPFL yielded a protein stability index of 0.618 ± 0.061.

As for LDTRTLGVLTVG, the protein stability index was found to be 0.633 ± 0.025.

For the sequence LDVGSFLALRMR, the protein stability index is 0.627 ± 0.036.

LEPSDMDTDSDG displayed a protein stability index of 0.706 ± 0.018.

Sequence LESCFFGSFFFL returned a protein stability index of 0.778 ± 0.091.

The sequence LESGSARLFLWI came in with a protein stability index of 0.746 ± 0.16.

In turn, LEVVVVGGVGGG showed a protein stability index of 0.687 ± 0.085.

Sequence LFAHPPSPPSAP displayed a protein stability index of 0.654 ± 0.016.

Regarding LFCHHCASLVDL, the protein stability index amounted to 0.722 ± 0.002.

Regarding LFDRFVAGVRYG, the protein stability index was found to be 0.656 ± 0.021.

With LFFFPRRLSPPT, the protein stability index stood at 0.722 ± 0.05.

LFFRLRSLLSRS registered a protein stability index of 0.623 ± 0.0063.
